Source: US6306832, “Peptide antiestrogen compositions and methods for treating breast cancer” (University of California)

Biological target: estrogen receptor alpha (ER), purified recombinant (Homo sapiens, UniProt P03372 P03372:1-595)
Experiment: EMSA; 60 nM ER, 100 nM estradiol, HEPES pH 7.5, 100 mM KCl, 1 mM EDTA, poly(dI-dC), 4 C; competed by 100x unlabelled ERE; blocked by 0.5 uM pY8/pY10/mY8 peptides, not by conY
Details: tags: Panvera (Madison, WI); chain copies: 2 (homodimer, stated); label: 32P 5'-end (polynucleotide kinase)
Method: FIG. 6B. Purified human ER (60 nM) was incubated with control solution (CON), a 100-fold molar excess of unlabelled ERE (100 ERE) or with peptides at 250 nM or 500 nM. ER was incubated with peptides for 15 min at 4° C. followed by addition of 100 nM estradiol-17β and ^32P-ERE. Peptides included phosphotyrosyl-octapeptide (pY8), control non-phosphorylated octapeptide (conY), malonyltyrosyl-octapeptide(mY8), phosphotyrosine amino acid alone (pY), as an additional control, and a phosphotyrosyl-decapeptide, N-Val-Pro-Leu-pTyr-Asp-Leu-Leu-Leu-Glu-Met-C (pYl 0) (SEQ ID NO:3). Although not shown, the effect of conY at 500 nM was the same as that shown at a concentration of 250 nM.
Interaction of ER with nuclear ERE is prerequisite for activation of transcription. To assess the specific binding of ER with ERE, purified recombinant human ER from MCF-7 breast cancer cells were used. A double-stranded 27-bp probe (5'-[…]-3') (SEQ ID NO:12) encoding the Xenopus vitellogenin A_2 ERE was ^32P-end-labeled with polynucleotide kinase. Gel mobility shift assays for the human ER were performed as described (Arnold et al., 1995a; Arnold and Notides, 1995; Arnold et al., 1995b). […]

estrogen receptor alpha (ER), purified recombinant, sequence (P03372 whole entry, one chain of several): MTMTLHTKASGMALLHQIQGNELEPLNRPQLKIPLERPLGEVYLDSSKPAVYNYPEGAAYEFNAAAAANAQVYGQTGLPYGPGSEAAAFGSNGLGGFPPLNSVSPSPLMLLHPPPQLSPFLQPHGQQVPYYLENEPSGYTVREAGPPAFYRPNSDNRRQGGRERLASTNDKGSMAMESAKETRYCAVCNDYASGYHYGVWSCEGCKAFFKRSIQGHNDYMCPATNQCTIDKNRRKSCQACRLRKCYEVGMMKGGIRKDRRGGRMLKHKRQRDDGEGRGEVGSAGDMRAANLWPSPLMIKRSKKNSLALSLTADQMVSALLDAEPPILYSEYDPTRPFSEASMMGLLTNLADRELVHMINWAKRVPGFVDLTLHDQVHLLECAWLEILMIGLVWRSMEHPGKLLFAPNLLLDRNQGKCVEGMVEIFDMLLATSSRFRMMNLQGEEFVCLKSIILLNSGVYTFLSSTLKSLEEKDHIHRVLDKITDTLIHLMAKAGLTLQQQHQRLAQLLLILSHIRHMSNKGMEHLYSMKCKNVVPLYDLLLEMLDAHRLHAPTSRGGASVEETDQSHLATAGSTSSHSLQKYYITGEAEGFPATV

B1: vitellogenin A2 ERE 27-bp probe (dsDNA)
DNA 1: GATCCTAGAGGTCACAGTGACCTACGA
DNA 2: TCGTAGGTCACTGTGACCTCTAGGATC
  binding result: binds
